Source: the supplement of paper PMC11246515
± gives the standard deviation of the averaged measurements.

Assay: total protein half-life in vivo (active degradation + dilution); higher = more stable protein
[1] = E. coli NCM3722 delta-clpP delta-lon delta-hslV, growth: N-lim chemostat, doubling time 6 h
[2] = E. coli NCM3722 delta-clpP, growth: N-lim chemostat, doubling time 6 h
[3] = E. coli NCM3722 delta-hslV, growth: N-lim chemostat, doubling time 6 h
[4] = E. coli NCM3722 delta-lon, growth: N-lim chemostat, doubling time 6 h
[5] = E. coli NCM3722 delta-smpB, growth: N-lim chemostat, doubling time 6 h
[6] = wild type E. coli NCM3722, growth: C-lim chemostat, doubling time 6 h
[7] = wild type E. coli NCM3722, growth: C-lim chemostat, doubling time 12 h
[8] = wild type E. coli NCM3722, growth: N-lim chemostat, doubling time 6 h
[9] = wild type E. coli NCM3722, growth: N-lim chemostat, doubling time 12 h
[10] = wild type E. coli NCM3722, growth: P-lim chemostat, doubling time 6 h
[11] = wild type E. coli NCM3722, growth: P-lim chemostat, doubling time 12 h

| Sequence | total protein half-life in vivo [1] [h] | total protein half-life in vivo [2] [h] | total protein half-life in vivo [3] [h] | total protein half-life in vivo [4] [h] | total protein half-life in vivo [5] [h] | total protein half-life in vivo (wild type E. coli NCM3722, growth: C-lim chemostat, doubling time 3 h) [h] | total protein half-life in vivo [6] [h] | total protein half-life in vivo [7] [h] | total protein half-life in vivo [8] [h] | total protein half-life in vivo [9] [h] | total protein half-life in vivo [10] [h] | total protein half-life in vivo [11] [h] |
| --- | --- | --- | --- | --- | --- | --- | --- | --- | --- | --- | --- | --- |
| MSLWKKISLGVVIVILLLLGSVAFLVGTTSGLHLVFKAADRWVPGLDIGKVTGGWRDLTLSDVRYEQPGVAVKAGNLHLAVGLECLWNSSVCINDLALKDIQVNIDSKKMPPSEQVEEEEDSGPLDLSTPYPITLTRVALDNVNIKIDDTTVSVMDFTSGLNWQEKTLTLKPTSLKGLLIALPKVAEVAQEEVVEPKIENPQPDEKPLGETLKDLFSRPVLPEMTDVHLPLNLNIEEFKGEQLRVTGDTDITVSTMLLKVSSIDGNTKLDALDIDSSQGIVNASGTAQLSDNWPVDITLNSTLNVEPLKGEKVKLKMGGALREQLEIGVNLSGPVDMDLRAQTRLAEAGLPLNVEVNSKQLYWPFTGEKQYQADDLKLKLTGKMTDYTLSMRTAVKGQEIPPATITLDAKGNEQQVNLDKLTVAALEGKTELKALLDWQQAISWRGELTLNGINTAKEFPDWPSKLNGLIKTRGSLYGGTWQMDVPELKLTGNVKQNKVNVDGTLKGNSYMQWMIPGLHLELGPNSAEVKGELGVKDLNLDATINAPGLDNALPGLGGTAKGLVKVRGTVEAPQLLADITARGLRWQELSVAQVRVEGDIKSTDQIAGKLDVRVEQISQPDVNINLVTLNAKGSEKQHELQLRIQGEPVSGQLNLAGSFDRKEERWKGTLSNTRFQTPVGPWSLTRDIALDYRNKEQKISIGPHCWLNPNAELCVPQTIDAGAEGRAVVNLNRFDLAMLKPFMPETTQASGIFTGKADVAWDTTKEGLPQGSITLSGRNVQVTQTVNDAALPVAFQTLNLTAELRNNRAELGWTIRLTNNGQFDGQVQVTDPQGRRNLGGNVNIRNFNLAMINPIFTRGEKAAGMVSANLRLGGDVQSPQLFGQLQVTGVDIDGNFMPFDMQPSQLAVNFNGMRSTLAGTVRTQQGEIYLNGDADWSQIENWRARVTAKGSKVRITVPPMVRMDVSPDVVFEATPNLFTLDGRVDVPWARIVVHDLPESAVGVSSDVVMLNDNLQPEEPKTASIPINSNLIVHVGNNVRIDAFGLKARLTGDLNVVQDKQGLGLNGQINIPEGRFHAYGQDLIVRKGELLFSGPPDQPYLNIEAIRNPDATEDDVIAGVRVTGLADEPKAEIFSDPAMSQQAALSYLLRGQGLESDQSDSAAMTSMLIGLGVAQSGQIVGKIGETFGVSNLALDTQGVGDSSQVVVSGYVLPGLQVKYGVGIFDSIATLTLRYRLMPKLYLEAVSGVDQALDLLYQFEF | 5.88 ± 0.49 | 6.03 ± 0.44 | 6.95 ± 0.39 | 6.374 ± 0.041 | 5.69 ± 0.29 | 3.04 ± 0.044 | 5.97 ± 0.5 | 11.7 ± 1.2 | 6.2514 ± 0.0027 | 12.1 ± 0.24 | 5.992 ± 0.026 | 12.22 ± 0.066 |
| MSMSHINYNHLYYFWHVYKEGSVVGAAEALYLTPQTITGQIRALEERLQGKLFKRKGRGLEPSELGELVYRYADKMFTLSQEMLDIVNYRKESNLLFDVGVADALSKRLVSSVLNAAVVEGEPIHLRCFESTHEMLLEQLSQHKLDMIISDCPIDSTQQEGLFSVRIGECGVSFWCTNPPPEKPFPACLEERRLLIPGRRSMLGRKLLNWFNSQGLNVEILGEFDDAALMKAFGAMHNAIFVAPTLYAYDFYADKTVVEIGRVENVMEEYHAIFAERMIQHPAVQRICNTDYSALFSPAVR [P0A9G2] | 6.03 ± 0.4 | 6.18 | 4.38 | 5.99 ± 1.4 | 5.21 ± 0.34 | – | 5.51 | 9.31 | 5.76 ± 1.2 | – | 4.93 ± 1.5 | 10.2 |
| MSNAITMGIFWHLIGAASAACFYAPFKKVKKWSWETMWSVGGIVSWIILPWAISALLLPNFWAYYSSFSLSTRLPVFLFGAMWGIGNINYGLTMRYLGMSMGIGIAIGITLIVGTLMTPIINGNFDVLISTEGGRMTLLGVLVALIGVGIVTRAGQLKERKMGIKAEEFNLKKGLVLAVMCGIFSAGMSFAMNAAKPMHEAAAALGVDPLYVALPSYVVIMGGGAIINLGFCFIRLAKVKDLSLKADFSLAKSLIIHNVLLSTLGGLMWYLQFFFYAWGHARIPAQYDYISWMLHMSFYVLCGGIVGLVLKEWNNAGRRPVTVLSLGCVVIIVAANIVGIGMAN | – | – | – | – | – | – | – | – | – | 7.44 | – | – |
| MSNAQEAVKTRHKETSLIFPVLALVVLFLWGSSQTLPVVIAINLLALIGILSSAFSVVRHADVLAHRLGEPYGSLILSLSVVILEVSLISALMATGDAAPTLMRDTLYSIIMIVTGGLVGFSLLLGGRKFATQYMNLFGIKQYLIALFPLAIIVLVFPMALPAANFSTGQALLVALISAAMYGVFLLIQTKTHQSLFVYEHEDDSDDDDPHHGKPSAHSSLWHAIWLIIHLIAVIAVTKMNASSLETLLDSMNAPVAFTGFLVALLILSPEGLGALKAVLNNQVQRAMNLFFGSVLATISLTVPVVTLIAFMTGNELQFALGAPEMVVMVASLVLCHISFSTGRTNVLNGAAHLALFAAYLMTIFA | – | > 8 | – | – | 6.69 | – | – | > 16 | – | – | 6.87 | – |
